Data reported in publication PMC11797554 (2024).

Tests used:
[1] = biological target: T1, SCRM KiDoK peptide (Arabidopsis, UniProt Q9LSE2, biotin); assay: BLI; in presence of kC9; kinetic fit
[2] = biological target: T1, SCRM KiDoK peptide; assay: BLI
[3] = biological target: T1, SCRM KiDoK peptide; assay: BLI; in presence of kC9

B1: MPK6ΔNt (29 to 305) (domain or fragment)
chain: QMPGIENIPATLSHGGRFIQYNIFGNIFEVTAKYKPPIMPIGKGAYGIVCSAMNSETNESVAIKKIANAFDNKIDAKRTLREIKLLRHMDHENIVAIRDIIPPPLRNAFNDVYIAYELMDTDLHQIIRSNQALSEEHCQYFLYQILRGLKYIHSANVLHRDLKPSNLLLNANCDLKICDFGLARVTSESDFMTEYVVTRWYRAPELLLNSSDYTAAIDVWSVGCIFMELMDRKPLFPGRDHVHQLRLLMELIGTPSEEELEFLNENAKRYIRQLPPYPRQSITDKFPTVHPLAIDLIEKMLTFDPRRRITVLDALAHPYLNSLHDISDEPECTIPFNFDFENHALSEEQMKELIYREALAFNPEYQQ
**Q.** Which Kd [1] does the source give for B1 here?
**A.** The Kd was 1050 nM.

**Q.** What about the koff [2] of the same binder?
**A.** Its koff is 0.0327 s⁻¹.

**Q.** What about the koff [3] of the same binder?
**A.** Its koff is 0.0178 s⁻¹.
